Results as given in paper PMC4133399.

Experiments:
[1] = biological target: TLR2 protein of RAW264.7 murine macrophages (mouse (endogenous in RAW264.7)) (UniProt Q9QUN7)
[2] = biological target: TLR2 protein of RAW264.7 murine macrophages (mouse (endogenous in RAW264.7)) (UniProt Q9QUN7); remark: listed apart in the source
[3] = biological target: GpA G83I TMD (LexA-TMD-MBP chimera); assay: GALLEX assay (β-gal activity of LexA-TMD-MBP chimera proteins); settings: n = 3; strong dimerization results in low β-gal activity; parent: est. 20; read off a plot
[4] = biological target: NBD-labelled gp41 TMD peptide (HIV-1); assay: FRET or BRET; NBD-labelled gp41 TMD or mutant peptide (donor, 0.1 µM) in PC∶Chol 9∶1 LUVs, titrated with Rho-labelled TLR2 TMD peptide at 1∶40, 1∶20, 1∶10 and 1∶1 acceptor∶donor; decrease of donor emission at 530 nm
[5] = biological target: NBD-labelled gp41 mutant peptide (HIV-1); assay: as above
[6] = biological target: LexA-TMD-MBP chimera protein with the TLR2 TMD (GALLEX) (UniProt O60603); assay: GALLEX assay (β-gal activity of LexA-TMD-MBP chimera proteins); settings: n = 3; strong dimerization results in low β-gal activity; parent: est. 48; read off a plot
UniProt O60603, sequence (O60603 21-784, stated change not applied): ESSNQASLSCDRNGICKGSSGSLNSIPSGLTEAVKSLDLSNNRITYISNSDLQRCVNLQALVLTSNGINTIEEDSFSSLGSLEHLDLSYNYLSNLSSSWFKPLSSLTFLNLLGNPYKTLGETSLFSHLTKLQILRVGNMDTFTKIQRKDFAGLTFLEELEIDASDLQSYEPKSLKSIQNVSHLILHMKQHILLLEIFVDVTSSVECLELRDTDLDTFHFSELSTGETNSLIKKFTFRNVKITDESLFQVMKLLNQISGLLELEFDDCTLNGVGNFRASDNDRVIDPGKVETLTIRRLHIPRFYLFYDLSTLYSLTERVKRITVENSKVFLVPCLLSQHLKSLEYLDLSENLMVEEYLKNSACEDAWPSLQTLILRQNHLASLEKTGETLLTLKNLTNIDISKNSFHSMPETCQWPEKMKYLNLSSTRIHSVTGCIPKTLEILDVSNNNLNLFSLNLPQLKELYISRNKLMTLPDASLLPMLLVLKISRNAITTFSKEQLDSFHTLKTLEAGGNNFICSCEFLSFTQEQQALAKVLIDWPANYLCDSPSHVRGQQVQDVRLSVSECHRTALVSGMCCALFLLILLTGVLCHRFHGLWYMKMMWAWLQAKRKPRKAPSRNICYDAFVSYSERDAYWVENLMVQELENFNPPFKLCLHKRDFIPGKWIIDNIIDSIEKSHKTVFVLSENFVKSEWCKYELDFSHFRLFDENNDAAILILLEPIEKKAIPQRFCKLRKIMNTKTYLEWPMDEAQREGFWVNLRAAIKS

UniProt Q9QUN7, sequence (Q9QUN7 25-784): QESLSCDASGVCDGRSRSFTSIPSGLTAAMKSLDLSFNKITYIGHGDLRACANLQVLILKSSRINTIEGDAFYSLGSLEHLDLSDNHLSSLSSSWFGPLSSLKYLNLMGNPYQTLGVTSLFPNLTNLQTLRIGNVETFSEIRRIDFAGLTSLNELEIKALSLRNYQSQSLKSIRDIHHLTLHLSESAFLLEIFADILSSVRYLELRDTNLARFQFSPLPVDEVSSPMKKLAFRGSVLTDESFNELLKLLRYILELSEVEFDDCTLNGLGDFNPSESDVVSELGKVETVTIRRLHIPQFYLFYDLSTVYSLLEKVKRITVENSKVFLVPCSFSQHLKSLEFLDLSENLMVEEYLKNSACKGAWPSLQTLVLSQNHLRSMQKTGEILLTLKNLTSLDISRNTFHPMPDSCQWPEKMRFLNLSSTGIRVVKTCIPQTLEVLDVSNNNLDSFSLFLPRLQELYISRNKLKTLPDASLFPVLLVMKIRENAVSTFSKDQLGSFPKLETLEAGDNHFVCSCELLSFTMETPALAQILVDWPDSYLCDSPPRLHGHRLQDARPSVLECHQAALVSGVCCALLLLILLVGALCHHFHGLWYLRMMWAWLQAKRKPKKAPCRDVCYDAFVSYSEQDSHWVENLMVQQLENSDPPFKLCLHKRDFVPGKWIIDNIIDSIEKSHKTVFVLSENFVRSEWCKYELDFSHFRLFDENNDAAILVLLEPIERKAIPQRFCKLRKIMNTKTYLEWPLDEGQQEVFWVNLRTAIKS

unlabeled WT gp41 TMD peptide
MCP1 mRNA expression in LTA-activated RAW264.7 cells (real-time PCR), decrease against non-treated cells [1]: 45% | TNFα mRNA expression in LTA-activated RAW264.7 cells (real-time PCR), decrease against non-treated cells [1]: 72% | ERK1,2 phosphorylation in RAW264.7 cells 20 minutes after LTA, cells pre-treated with the peptide for 2 hours (decrease of p-ERK band intensity) [2]: > 50%

LexA-TMD-MBP chimera protein with the Glycophorin A (GpA) TMD (GALLEX) G83I
response [3]: 100%

Rho-labeled TLR2 TMD peptide
decrease of the NBD donor emission at 530 nm (FRET) at 1∶1 ratio [4]: > 60% | decrease of the NBD donor emission at 530 nm (FRET) [5]: < 25%

LexA-TMD-MBP chimera protein with the gp41 wild type TMD (GALLEX) (from UniProt P04578) gp41 mutant
response [6]: 68%
